Data published in the supplement of paper PMC10724198.
± gives the standard deviation of the averaged measurements.

What was measured:
Saccharomyces cerevisiae [1] = assay: protein stability index of tFT-peptide fusion (C-terminal peptide) (PSI (0-1 scale)); higher = more stable (slower turnover)
Procedure: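 MPS profiling in S. cerevisiae of the tFT-X12 degron library: putative degron peptides plus stable controls, 12 aa, fused to the C-terminus of a sfGFP-mCherry timer. Cells are FACS-sorted into 8 mCherry/sfGFP bins and deep-sequenced. PSI runs from 0 (unstable) to 1 (stable). Backgrounds are wild type, das1Δ and doa10Δ at 30 °C, and wild type, das1Δ, cdc34-1 and cdc53-1 at 37 °C; 2-3 technical replicates each.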

Saccharomyces cerevisiae [2] = assay: as above; details: genetic background: wild type; temperature: 30 C
[3] = genetic background: cdc34-1, temperature: 37 C
[4] = genetic background: cdc53-1, temperature: 37 C
[5] = genetic background: das1 deletion, temperature: 30 C
[6] = genetic background: das1 deletion, temperature: 37 C
[7] = genetic background: doa10 deletion, temperature: 30 C
[8] = genetic background: wild type, temperature: 30 C
[9] = genetic background: wild type, temperature: 37 C
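Also: PSI is a weighted mean of sequencing reads over stability bins, variants kept only with over 10 reads, mCherry proximal and sfGFP distal, peptide attached via GGGS linker.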

| Sequence | protein stability index (Saccharomyces cerevisiae [1]; [3]) | protein stability index (Saccharomyces cerevisiae [1]; [4]) | protein stability index (Saccharomyces cerevisiae [1]; [5]) | protein stability index (Saccharomyces cerevisiae [1]; [6]) | protein stability index (Saccharomyces cerevisiae [1]; [7]) | protein stability index (Saccharomyces cerevisiae [1]; [8]) | protein stability index (Saccharomyces cerevisiae [1]; [9]) | protein stability index (Saccharomyces cerevisiae [2]) |
| --- | --- | --- | --- | --- | --- | --- | --- | --- |
| VCFCFLRFLSLL | 0.543 ± 0.043 | 0.685 ± 0.014 | 0.572 ± 0.031 | 0.716 ± 0.031 | 0.176 ± 0.0026 | 0.191 ± 0.0057 | 0.24 ± 0.019 | 0.262 ± 0.016 |
| SYVFEFIVSVVF | 0.208 ± 0.016 | 0.347 ± 0.011 | 0.253 ± 0.03 | 0.373 ± 0.015 | 0.23 ± 0.0064 | 0.255 ± 0.014 | 0.341 ± 0.016 | 0.315 ± 0.0044 |
| TFRVRRQKNRNM | 0.628 ± 0.021 | 0.692 ± 0.039 | 0.631 ± 0.022 | 0.725 ± 0.013 | 0.0838 ± 0.015 | 0.099 ± 0.013 | 0.217 ± 0.012 | 0.236 ± 0.012 |
| LCLLPVCLWDVG | 0.451 ± 0.026 | 0.513 ± 0.016 | 0.447 ± 0.0076 | 0.501 ± 0.0082 | 0.453 ± 0.0074 | 0.439 ± 0.017 | 0.49 ± 0.0072 | 0.461 ± 0.023 |
| YSGRYRTLVRCW | 0.291 ± 0.011 | 0.366 ± 0.039 | 0.265 ± 0.037 | 0.4426 ± 0.0032 | 0.199 ± 0.0059 | 0.236 ± 0.033 | 0.384 ± 0.02 | 0.33 ± 0.015 |
| IIIRVTILCEQF | 0.135 ± 0.097 | 0.176 ± 0.0098 | 0.146 ± 0.02 | 0.258 ± 0.018 | 0.113 ± 0.0089 | 0.137 ± 0.0053 | 0.212 ± 0.011 | 0.241 ± 0.0066 |
| IDLVAFCTIFAL | 0.4606 ± 0.0013 | 0.494 ± 0.032 | 0.363 ± 0.03 | 0.516 ± 0.01 | 0.295 ± 0.0078 | 0.33 ± 0.02 | 0.469 ± 0.018 | 0.3975 ± 0.0032 |
| CKYCKCVVLLWS | 0.53 ± 0.052 | 0.605 ± 0.013 | 0.385 ± 0.037 | 0.6012 ± 0.00065 | 0.2932 ± 0.0013 | 0.334 ± 0.034 | 0.536 ± 0.01 | 0.434 ± 0.037 |
| FFLFLFFFLRGS | 0.4853 ± 0.0033 | 0.53967 ± 0.00022 | 0.405 ± 0.025 | 0.533 ± 0.035 | 0.419 ± 0.03 | 0.402 ± 0.035 | 0.511 ± 0.021 | 0.467 ± 0.023 |
| LTACRYVCFLLF | 0.575 ± 0.019 | 0.644 ± 0.018 | 0.561 ± 0.017 | 0.676 ± 0.037 | 0.239 ± 0.0088 | 0.261 ± 0.032 | 0.424 ± 0.012 | 0.261 ± 0.041 |
| IHIFIIFRVQWK | 0.176 ± 0.064 | 0.232 ± 0.036 | 0.179 ± 0.025 | 0.272 ± 0.018 | 0.163 ± 0.0023 | 0.156 ± 0.05 | 0.249 ± 0.03 | 0.227 ± 0.012 |
| RPAVVPPPFAPL | 0.652 ± 0.032 | 0.724 ± 0.023 | 0.707 ± 0.0089 | 0.7172 ± 0.0055 | 0.708 ± 0.018 | 0.695 ± 0.01 | 0.6996 ± 0.003 | 0.76 ± 0.041 |
| PWFSWLLYSFLF | 0.546 ± 0.024 | 0.529 ± 0.031 | 0.526 ± 0.013 | 0.651 ± 0.029 | 0.535 ± 0.016 | 0.458 ± 0.026 | 0.551 ± 0.011 | 0.501 ± 0.0028 |
| RLVCPFYIACVW | 0.623 ± 0.012 | 0.649 ± 0.01 | 0.509 ± 0.016 | 0.588 ± 0.014 | 0.468 ± 0.015 | 0.488 ± 0.022 | 0.567 ± 0.031 | 0.516 ± 0.027 |
| GSVCVVCWELVV | 0.4883 ± 0.0024 | 0.583 ± 0.0091 | 0.344 ± 0.029 | 0.5561 ± 0.0013 | 0.26 ± 0.0046 | 0.293 ± 0.017 | 0.4792 ± 0.0027 | 0.378 ± 0.04 |
| CIHMNCSMMIIS | 0.0533 ± 0.045 | 0.084 ± 0.0027 | 0.168 ± 0.0061 | 0.0659 ± 0.029 | 0.169 ± 0.0045 | 0.132 ± 0.036 | 0.0482 ± 0.035 | 0.135 ± 0.0034 |
| ALLMVCFGFSLV | 0.445 ± 0.022 | 0.5162 ± 0.0013 | 0.372 ± 0.032 | 0.527 ± 0.0098 | 0.335 ± 0.009 | 0.367 ± 0.02 | 0.508 ± 0.0078 | 0.422 ± 0.01 |
| GLWLRVCIVAWV | 0.0407 ± 0.01 | 0.122 ± 0.017 | 0.0686 ± 0.031 | 0.19 ± 0.0034 | 0.0424 ± 0.011 | 0.0551 ± 0.013 | 0.144 ± 0.0033 | 0.14 ± 0.0097 |
| RYCVVDISAFCD | 0.489 ± 0.017 | 0.576 ± 0.021 | 0.368 ± 0.029 | 0.5947 ± 0.0057 | 0.37 ± 0.017 | 0.388 ± 0.026 | 0.573 ± 0.024 | 0.465 ± 0.0094 |
| VLLVSVFVATLL | 0.124 ± 0.013 | 0.256 ± 0.0095 | 0.143 ± 0.033 | 0.334 ± 0.0086 | 0.113 ± 0.0087 | 0.135 ± 0.022 | 0.284 ± 0.0077 | 0.21 ± 0.012 |
